Data: US20210253725A1 (BIONTECH, published 2021)

T1: CD27 expressed on the cell surface (HT1080_CD27 cells) (human, UniProt P26842 20-260)
T1 sequence (looked up): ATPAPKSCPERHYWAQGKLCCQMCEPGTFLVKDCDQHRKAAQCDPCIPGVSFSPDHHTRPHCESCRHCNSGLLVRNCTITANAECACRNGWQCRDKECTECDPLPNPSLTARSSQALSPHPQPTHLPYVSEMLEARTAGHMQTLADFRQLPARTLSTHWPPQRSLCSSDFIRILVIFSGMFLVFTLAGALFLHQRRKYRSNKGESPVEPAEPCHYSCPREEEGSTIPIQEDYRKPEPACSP

T2: CD27 protein (His-tagged, Sino Biological Inc. 10039-H08B1) (human, UniProt P26842 20-192)
T2 construct: bought; coated onto ELISA plates; also called human CD27; recombinant protein; not shown: His tag
T2 sequence (looked up): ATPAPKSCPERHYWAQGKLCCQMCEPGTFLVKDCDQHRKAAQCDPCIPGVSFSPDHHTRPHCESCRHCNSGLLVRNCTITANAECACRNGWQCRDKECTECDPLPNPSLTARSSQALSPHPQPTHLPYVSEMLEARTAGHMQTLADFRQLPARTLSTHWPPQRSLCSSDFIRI

B1: P018.S.03.A.D03 (antibody, V domains shown)
VH: QEQLVESGGGLVQPEGSLTLTCTASGFSFNNNYVMSWVRQAPGKGLEWIGTIYVVSGSTYYASWVNGRFSISKTSSTTVTLQMTSLTDADTATYFCARDQLYNSGYDFDLWGPGTLVIVSS
VL: AQVLTQTASPVSAAVGSTVTISCQSSQSVYNNNELSWYQQKPGQPPKLLIYQASKLASGVSSRFSGSESGTQFTLTISGVQSDDAATYYCQGTYYRSGLDNGFGGGTEVVVK
notes: V regions on human Ig constant parts; also called AB27_48
B2: P018.S.02.A.B03 (antibody, V domains shown)
VH: QSLEESGGGLVKPGGTLTLTCTASGFSLSSTYMSWVRQAPGKGLEWIGDIYTDGSTYYASWVNGRFTISKTSTTVDLKMTSLTTEDTATYFCARGAAAAYDLWGQGTLVTVSS
VL: AYDMTQTPASVSAAVGGTVTIKCQASQNIYTNLAWYQQKPGQPPKLLIYGVSNLESGVPSRFKGSGSGTQFTLTISGVQSDDAATYYCQQGYSSTNVENAFGGGTEVVVK
notes: V regions on human Ig constant parts; also called AB27_30
B3: P018.S.06.A.H04 (antibody, V domains shown)
VH: QEKLEESGGGLVKPGGSLTLPCTASGFTLSSRYYMCWVRQAPGKGLEWIGCIYAGSLRTWYASWAKGRFTISKTSSTTVTLQMTSLTAADTATYFCARSPGVAASYPELWGPGTLVTVSS
VL: AQVLTQTPSSVAAAVGGTVSISCQSSQSVGNADNLAWYQQKPGQPPNLLIYYAASLASGVPSRFKGSGSGTQFTLTISDLESDDAATYYCGGGYYNSTDTFYTFGGGTEVVVK
notes: V regions on human Ig constant parts; also called AB27_111
B4: P018.S.06.A.C02 (antibody, V domains shown)
VH: QSVEESGGRLVTPGTPLTLTCIVSGIDLSSNAMSWVRQAPGKGLEWIGIIGFAGITYYANWAKGRFTISKTSTTVDLKITSPTTEDTATYFCARAYGDSDGLYNLWGQGTLVTVSS
VL: AQVLTQTASSVSAAVGGTVTISCQSSESVYNNNWLGWFQQKPGQPPKLLIYLASTLASGVPSRFKGSGSGTQFTLTISDLESDDAATYYCQGGYSGNIFAFGGGTEVVVN
notes: V regions on human Ig constant parts; also called AB27_100
B5: P018.S.01.A.C04 (antibody, V domains shown)
VH: QSLEESGGGLVTPGGTLTLTCTASGSDISTYHMGWFRQAPGKGLEYIGFINTGGTTWYASWAKGRFTVSRTSTTVDLLMTSPTTEDTATYFCARYDAGHAFFDLWGPGTLVTVSS
VL: AVVMTQTASPVSAAVGGTVTIKCQASQSIGSSYFSWYQQKPGQPPKLLIYSASTLASGVSSRFKGSGSGTEYTLTISDLESADAATYYCQGYDGDTTTAFFAFGGGTEVVVE
notes: V regions on human Ig constant parts; also called AB27_8
B6: P018.S.06.A.A02 (antibody, V domains shown)
VH: QEQLVESGGGLVQPEGSLTLTCTSSGFSLNSNYYISWVRQAPGKGLEWIACIDAGSGSTWYASWVKGRFTISKTSSTTVTLQMTSLTAADTATYFCARDDIGTSYEYYFGLWGPGTLVTVSS
VL: DVVLTQTPASVSEPVGGTVTIKCQASQTISSYLAWYQQKSGQPPKLLIYSASTLASGVSSRFKGSGSGTEYTLTISDLESADAATYYCQTYYGSDSYVFGGGTEVVVK
notes: V regions on human Ig constant parts; also called AB27_95
B7: P018.S.02.A.A01 (antibody, V domains shown)
VH: QSVEESGGRLVTPGTPLTLTCTVSGIDLSRYAMGWVRQAPGKGLEYIGIISSSGSTYYASWIKGRFTISKTSTTVDLKITSPTTEDTATYFCARSPYASTSASAFNLWGPGTLVTVSS
VL: AFELTQTPSSVEAAVGGTVTIKCQASQSISSWLSWYQQKPGQPPKLLIYEASKLASGVPSRFKGSGSGTQFTLTISDLESADAATYYCQSYSSTTTNTFGGGTEVVVK
notes: V regions on human Ig constant parts; also called AB27_27
B8: P018.S.01.A.C02 (antibody, V domains shown)
VH: QSLEESGGDLVQPGASLTLTCTASGLDFISSYMCWVRQAPGKGLEWIGCIAPGGGNTYYATWAKGRFTFSETSSTTVTLQMTSLTAADTATYFCARTYPSIWYFGLWGPGTLVTVSS
VL: DVVMTQTPASVSEPVGGTVTIKCQASQSIGSNLGWYQQKPGQPPKLLIYGASTLASGVSSRFKGSGSGTEFTLTMSDLESADAATYYCQSFYAASSAFGGGTEVVVK
notes: V regions on human Ig constant parts; also called AB27_7
B9: P018.S.01.A.E05 (antibody, V domains shown)
VH: QEQLVESGGGLVQPEGSLTLTCTASGFSFSSRYYMCWVRQAPGKGLEWIACIAPDVSGSAYYATWAKGRITISETSSTTVTLRMTSLTAADTAIYFCARSVPGSLFYFQLWGPGTVVTVSS
VL: AAVLTQTPPSVSAAVGGTVTIKCQSSQSVYNKNEFSWYQQKPGQPPKLLIYDASTLASGVPSRFKGSGSGTQFTLTISDLESDDAATYYCQGSYYSSGSYTAFGGGTEVVVK
notes: V regions on human Ig constant parts; also called AB27_17
B10: P018.S.03.A.C04 (antibody, V domains shown)
VH: QSVEESGGRLVTPGTPLTLTCTVSGVDLSRYAMSWVRQAPGEGLEWIGTIWYSGTTYYASWAKGRFTISKTSSTTVDLKMTSLTAADTATYFCARDPLYVGGNSGSDLWGPGTLVTVSS
VL: DVVMTQTPASVSAAVGGTVTINCQASQSIGSSLAWYQQKPGQRPKLLIYYASTLASGVPSRFSGSGSGTEFTLTISDLESADAATYYCQSNYGAASSSYGAFGGGTEVVVK
notes: V regions on human Ig constant parts; also called AB27_45
B11: P018.S.01.A.A04 (antibody, V domains shown)
VH: QSVEESGGRLVTPGTPLTLTCTVSGFSLSRYWVSWVRQAPGKGLEAIGVIDNGDTAYYASWAKGRFTISKTSSITVDLKMTSLTTEDTATYFCTREGADHSGQDLWGQGTLVTVSS
VL: AAVLTQTPSPVSAAVGGTVTINCQASQSVISNNDLSWYQQKPGQPPKLLIYRASNLASGVPSRFEGSGSGTQFTLTISDLESEDAATYYCQGGYAGIVDRRPFGGGTEVVVK
notes: V regions on human Ig constant parts; also called AB27_1
B12: P018.S.07.A.H05 (antibody, V domains shown)
VH: QSLEESGGRLVTPGTPLTLTCTASGFSLNSYYINWVRQAPGKGLEWIGFINGYDNTWYASWAKGRFTISRTSTTVDLRITSPTTEDTATYFCARDPGGASGTGRLDLWGQGTLVTVSS
VL: DIVMTQTPASVSAAVGGTVTINCQASQSISTALAWYQQKPGQRPKLLIYDASKLASGVPSRFKGNGSGTEFTLTISDLESADAATYYCQCTYYDAYDVGAFGGGTEVVVN
notes: V regions on human Ig constant parts; also called AB27_133

Molecular target: T1, CD27 expressed on the cell surface …
Assay: cell-based or functional assay
Further: test concentration or dose not given here.

Row | IL-8, cross-linked by F(ab')2 fragment [abs. corr.] | IL-8 [abs. corr.] | Binder
1 | 1.05 abs. corr. | 0.281 abs. corr. | B1
2 | 1.16 abs. corr. | 0.12 abs. corr. | B2
3 | 1.69 abs. corr. | 0.173 abs. corr. | B3
4 | 1.61 abs. corr. | 0.519 abs. corr. | B4
5 | 1.08 abs. corr. | 0.383 abs. corr. | B5
6 | 1.81 abs. corr. | 0.737 abs. corr. | B6
7 | 1.62 abs. corr. | 0.4 abs. corr. | B7
8 | 1.48 abs. corr. | 0.395 abs. corr. | B8
9 | 1.33 abs. corr. | 0.209 abs. corr. | B9
10 | 1.48 abs. corr. | 0.394 abs. corr. | B10
11 | 1.03 abs. corr. | 0.236 abs. corr. | B11
12 | 1.19 abs. corr. | -0.16 abs. corr. | B12

Molecular target: T2, CD27 protein (His-tagged, Sino …)
Assay: ELISA on coated His-tagged CD27

Row | ELISA [abs. corr.] | Binder
13 | 3.22 abs. corr. | B1
14 | 3.25 abs. corr. | B2
15 | 3.23 abs. corr. | B3
16 | 3.23 abs. corr. | B4
17 | 3.24 abs. corr. | B5
18 | 3.23 abs. corr. | B6
19 | 3.23 abs. corr. | B7
20 | 3.25 abs. corr. | B8
21 | 3.22 abs. corr. | B9
22 | 3.52 abs. corr. | B10
23 | 3.24 abs. corr. | B11
24 | 3.25 abs. corr. | B12

Molecular target: T1, CD27 expressed on the cell surface …
Assay: cellular binding assay, HT1080_CD27 cells

Row | Cellular binding assay [RFU] | Binder
25 | 320 RFU | B1
26 | 332 RFU | B2
27 | 331 RFU | B3
28 | 283 RFU | B4
29 | 368 RFU | B5
30 | 366 RFU | B6
31 | 350 RFU | B7
32 | 324 RFU | B8
33 | 420 RFU | B9
34 | 337 RFU | B10
35 | 315 RFU | B11
36 | 256 RFU | B12
